Measured values published in patent US20240376170A1 (BRIGHT PEAK THERAPEUTICS, published 2024).
Bridges are numbered along the chain shown (N, C = ends). Primed or numbered codes have the meaning given here. [ ]: non-standard residue; d: D form. Ygp(4) = Tyr with amino-capped PEG8 (O-(8x polyethylene glycol-amino)-tyrosine); Yn3(4) = Tyr with azide-capped PEG9 (O-(9x polyethylene glycol-azido)-tyrosine); Ygp = O-(8x polyethylene glycol-amino)-tyrosine (Tyr, amino-capped PEG8); Yn3 = O-(9x polyethylene glycol-azido)-tyrosine (Tyr, azide-capped PEG9); Ygp″ = O-(8x polyethylene glycol-amino)-tyrosine; Yn3″ = O-(9x polyethylene glycol-azido)-tyrosine; hSer = N[C@@H](CCO)C(=O)O; Nle = CCCC[C@H](N)C(=O)O

B1: CMP-328 (ligand)
chain: APTSSSTKKTQLQLEHLLLDLQEILNGINNYKNPKLTR[Nle]L[hSer][Yn3]KF[Ygp][Nle]PKKATELKHLQCLEEELKPLEEVL[hSer]LAQSKNFHLRPRDLISNINVIVLELKGSETTF[hSer]CEYADETATIVEFLNRWITFSQSIISTLT
modifications: bridge 9-23; not fully specified (bridges)
notes: Synthetic IL-2 polypeptide, tested intact
B2: CMP-166, MMP2 cleaved (ligand)
chain: APTSSSTKKTQLQLEHLLLDLQKILNGINNYKNPKLTR[Nle]L[hSer][Yn3]KF[Ygp][Nle]PKKATELKHLQCLEEELKPLEEVL[hSer]LAQSKNFHLRPRDLISNINVIVLELKGSETTF[hSer]CEYADETATIVEFLNRWITFSQSIISTLT
modifications: also: glutaryl-PEG4-peptide bridge Ala1 to Lys23 cut by MMP2, site not given here, ring opened
notes: Tested after MMP2 treatment
B3: CMP-167 (ligand)
chain: APTSSSTKKTQLQLEHLLLDLQKILNGINNYKNPKLTR[Nle]L[hSer][Yn3]KF[Ygp][Nle]PKKATELKHLQCLEEELKPLEEVL[hSer]LAQSKNFHLRPRDLISNINVIVLELKGSETTF[hSer]CEYADETATIVEFLNRWITFSQSIISTLT
modifications: bridge N-23; not fully specified (bridges); ends not checked
B4: CMP-167, MMP2 cleaved (ligand)
chain: APTSSSTKKTQLQLEHLLLDLQKILNGINNYKNPKLTR[Nle]L[hSer][Yn3″]KF[Ygp″][Nle]PKKATELKHLQCLEEELKPLEEVL[hSer]LAQSKNFHLRPRDLISNINVIVLELKGSETTF[hSer]CEYADETATIVEFLNRWITFSQSIISTLT
modifications: ends and bridges not checked; also: MMP2 cleaved, ring opened, cut site and remnants not given here
notes: Tested after MMP2 treatment
B5: CMP-313 (ligand)
chain: APTSSSTKKTQLQLEHLLLDLQKILNGINNYKNPKLTR[Nle]L[hSer][Yn3(4)]KF[Ygp(4)][Nle]PKKATELKHLQCLEEELKPLEEVL[hSer]LAQSKNFHLRPRDLISNINVIVLELKGSETTF[hSer]CEYADETATIVEFLNRWITFSQSIISTLT
modifications: not fully specified; ends and bridges not checked; also: Lys23 side chain carries an attached cleavable peptide moiety (structure only in drawing)
notes: as for B1

Experiments:
[1] = biological target: T1, recombinant human IL-2 receptor beta containing a His-tag and Avi-tag (human, UniProt P14784 27-239); assay: BLI (Octet R8), receptor on SAX2 sensor; construct CMP-328, not MMP2-treated
T1 construct: Bought; attached to the SAX2 biosensor; also called CD122; IL-2R β; not shown: His-tag and Avi-tag
T1 sequence (looked up): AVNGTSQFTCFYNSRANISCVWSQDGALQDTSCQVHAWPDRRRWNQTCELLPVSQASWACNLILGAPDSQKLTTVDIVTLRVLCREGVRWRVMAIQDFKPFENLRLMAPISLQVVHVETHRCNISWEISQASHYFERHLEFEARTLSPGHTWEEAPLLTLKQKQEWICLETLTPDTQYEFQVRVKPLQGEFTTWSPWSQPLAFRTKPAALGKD
Protocol: (§1) Bilayer interferometry (BLI) assays were used to measure the binding constants between activatable IL-2 polypeptides (and activated versions thereof) to IL-2 receptor subunits or receptor complexes. BLI assays were conducted on an Octet® R8 instrument. Assay plates were 96 well, polypropylene, F-bottom (chimney well), black microplates (Greiner Bio-one, Cat. No: 655209). The biosensors were Octet® SAX2 (Sartorius, Cat. No: 18-5136). The assay buffer was 1X Kinetic Buffer (Sartorius, Cat. no: 18-5136) or Phosphate Buffered Saline (PBS) that contained 0.02% (v: v) Tween 20 (Polysorbate 20) and 0.1% (w/v) bovine serum albumin (BSA). The sensor was regenerated between measurements in 10 mM glycine pH 2.7 buffer.
(§2) Sensor attached receptors were either recombinant human IL-2 receptor beta containing a His-tag and Avi-tag™ (R&D Systems™) or an Avi-tag™ Fc with human IL-2R beta and IL-2R gamma attached (Acrobiosystems Cat. no: ACRB-ILG-H₈₂F3-25UG). Receptors were reconstituted from lyophilized powder to 500 μg/ml in PBS. Analytes were diluted in Kinetic buffer to 300 nM, then serially diluted to lower concentrations.

[2] = biological target: T2, Avi-tag Fc with human IL-2R beta and IL-2R gamma attached (Acrobiosystems ACRB-ILG-H82F3-25UG) (human, UniProt P14784 27-239; P31785 23-262); assay: BLI (Octet R8), receptor on SAX2 sensor
T2 construct: Bought; attached to the SAX2 biosensor; also called CD122 CD132; IL-2R βγ; not shown: Fc and Avi-tag
T2 sequence (looked up) 1: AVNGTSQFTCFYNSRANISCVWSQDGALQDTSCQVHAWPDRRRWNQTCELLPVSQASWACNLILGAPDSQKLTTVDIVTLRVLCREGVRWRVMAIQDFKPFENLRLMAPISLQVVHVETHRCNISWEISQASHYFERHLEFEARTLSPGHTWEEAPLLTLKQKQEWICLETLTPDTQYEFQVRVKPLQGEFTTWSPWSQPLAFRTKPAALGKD
T2 sequence (looked up) 2: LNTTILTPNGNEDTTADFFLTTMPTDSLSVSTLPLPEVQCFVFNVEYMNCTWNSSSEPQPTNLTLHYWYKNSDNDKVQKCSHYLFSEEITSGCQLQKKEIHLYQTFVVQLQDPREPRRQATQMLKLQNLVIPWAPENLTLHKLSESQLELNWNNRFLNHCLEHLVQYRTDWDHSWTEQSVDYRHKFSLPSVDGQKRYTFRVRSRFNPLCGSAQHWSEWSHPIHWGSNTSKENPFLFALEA
Protocol: as §1, §2

[3] = biological target: T2, Avi-tag Fc with human IL-2R beta and …; assay: BLI (Octet R8), receptor on SAX2 sensor; CMP-166 treated with MMP2 (cleaved)
Protocol: as §1, §2

[4] = biological target: T1, recombinant human IL-2 receptor beta …; assay: as above
Protocol: as §1, §2

[5] = biological target: T1, recombinant human IL-2 receptor beta …; assay: BLI (Octet R8), receptor on SAX2 sensor
Protocol: as §1, §2

[6] = biological target: T2, Avi-tag Fc with human IL-2R beta and …; assay: BLI (Octet R8), receptor on SAX2 sensor; construct CMP-167, intact (no MMP2)
Protocol: as §1, §2

[7] = biological target: T1, recombinant human IL-2 receptor beta …; assay: as above
Protocol: as §1, §2

[8] = biological target: T2, Avi-tag Fc with human IL-2R beta and …; assay: BLI (Octet R8), receptor on SAX2 sensor; CMP-167 treated with MMP2 (cleaved)
Protocol: as §1, §2

[9] = biological target: T1, recombinant human IL-2 receptor beta …; assay: as above
Protocol: as §1, §2

[10] = biological target: T2, Avi-tag Fc with human IL-2R beta and …; assay: BLI (Octet R8), receptor on SAX2 sensor; construct CMP-313, not MMP2-treated
Protocol: as §1, §2

[11] = biological target: T1, recombinant human IL-2 receptor beta …; assay: as above
Protocol: as §1, §2

Binder | koff [2] | kon [2] | koff [5] | kon [5] | also measured
B1 | 0.00194 s⁻¹ | – | – | – | Kd [1]: 0.034 nM
B2 | 0.000684 s⁻¹ | 567000 M⁻¹ s⁻¹ | 0.225 s⁻¹ | 283000 M⁻¹ s⁻¹ | Kd [3]: 1.21 nM; Kd [4]: 794 nM
B3 | – | – | 0.993 s⁻¹ | – | Kd [6]: 23.8 nM; Kd [7]: 215 nM
B4 | 0.000923 s⁻¹ | 594000 M⁻¹ s⁻¹ | 0.227 s⁻¹ | 345000 M⁻¹ s⁻¹ | Kd [8]: 1.55 nM; Kd [9]: 658 nM
B5 | 0.00148 s⁻¹ | – | – | – | Kd [10]: 3.4 nM; Kd [11]: 163 nM
